# Measured values published in patent publication US12331106B2, “Anti-angiopoietin-2 antibodies that induce Tie2 activation” (Institute for Basic Science, priority 2018, dated 2025).
# Changes are numbered by the printed parent chain.
# T1: hAng2 (Homo sapiens, UniProt O15123)
# T1 sequence (O15123 19-496): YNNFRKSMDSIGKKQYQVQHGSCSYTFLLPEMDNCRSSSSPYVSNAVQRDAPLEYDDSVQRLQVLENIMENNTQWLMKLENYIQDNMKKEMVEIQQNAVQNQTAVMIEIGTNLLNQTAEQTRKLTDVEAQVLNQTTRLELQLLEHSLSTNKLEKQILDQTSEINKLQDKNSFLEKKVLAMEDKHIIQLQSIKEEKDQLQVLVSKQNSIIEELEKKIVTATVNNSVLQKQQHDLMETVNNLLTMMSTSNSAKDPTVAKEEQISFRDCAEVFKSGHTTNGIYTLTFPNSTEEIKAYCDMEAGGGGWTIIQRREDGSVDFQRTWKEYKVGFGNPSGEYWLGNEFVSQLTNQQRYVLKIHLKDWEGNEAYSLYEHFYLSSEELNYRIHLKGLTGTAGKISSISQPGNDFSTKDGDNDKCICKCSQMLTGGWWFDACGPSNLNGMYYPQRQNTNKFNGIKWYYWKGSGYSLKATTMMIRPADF
# B1: 2C8H11G4: human IgG4 class antibody of 2C8H11 (antibody, V domains shown)
# VH: QVQLVQSGAEVKKPGASVKVSCKASGYTFTSYWMHWVRQAPGQGLEWMGMIDPSDSETRLNQKFKDRVTMTRDTSTSTVYMELSSLRSEDTAVYYCARRFYYGSDWYFDVWGQGTLVTVSS
# VL: DIQLTQSPSFLSASVGDRVTITCKASQDVGTAVAWYQQKPGKAPKLLIYWASTRHTGVPSRFSGSGSGTEFTLTISSLQPEDFATYYCQQYSSYPLTFGQGTKVEIK
# B2: 4B9H11G4: human IgG4 class antibody of 4B9H11 (antibody, V domains shown)
# VH: QVQLVESGGGLVKPGGSLRLSCAASGFTFSDYYMYWIRQAPGKGLEWVSTISVGGSFTYYPDSVKGRFTISRDNAKNSLYLQMNSLRAEDTAVYYCARDWGLRPWFVYWGQGTLVTVSS
# VL: B1 VL with L4M, F10S, G30S, E70D, Y91H, S92Y, Y94T, L96P
# B3: 2C8H32: humanized anti-Ang2 antibody from mouse 2C8; VH SEQ ID NO: 83, VL SEQ ID NO: 84 (antibody, V domains shown)
# VH: B1 VH with T28S, M48I, R67K, V68A, T69S
# VL: B1 VL with T20S, S60D
# modifications: VH; VL
# B4: 2C8H12: humanized anti-Ang2 antibody from mouse 2C8; VH SEQ ID NO: 75, VL SEQ ID NO: 76 (antibody, V domains shown)
# VH: B1 VH
# VL: B1 VL with T20S, S60D
# modifications: VH; VL
# B5: 2C8H43: humanized anti-Ang2 antibody from mouse 2C8; VH SEQ ID NO: 107, VL SEQ ID NO: 108 (antibody, V domains shown)
# VH: B1 VH with T28S, R38K, M48I, R67K, V68A, T69S
# VL: B1 VL with T20S, S60D, T85D, Y87F
# modifications: VH; VL
# B6: 2C8H22: humanized anti-Ang2 antibody from mouse 2C8; VH SEQ ID NO: 79, VL SEQ ID NO: 80 (antibody, V domains shown)
# VH: B1 VH with T28S, M48I
# VL: B1 VL with T20S, S60D
# modifications: VH; VL
# B7: 2C8H31: humanized anti-Ang2 antibody from mouse 2C8; VH SEQ ID NO: 63, VL SEQ ID NO: 64 (antibody, V domains shown)
# VH: B1 VH with T28S, M48I, R67K, V68A, T69S
# VL: B1 VL
# modifications: VH; VL
# B8: 2C8H53: humanized anti-Ang2 antibody from mouse 2C8; VH SEQ ID NO: 111, VL SEQ ID NO: 112 (antibody, V domains shown)
# VH: B1 VH with T28S, R38K, M48I, R67K, V68A, T69S, M70L, R72V
# VL: B1 VL with T20S, S60D, T85D, Y87F
# modifications: VH; VL
# B9: 2C8H51: humanized anti-Ang2 antibody from mouse 2C8; VH SEQ ID NO: 71, VL SEQ ID NO: 72 (antibody, V domains shown)
# VH: B1 VH with T28S, R38K, M48I, R67K, V68A, T69S, M70L, R72V
# VL: B1 VL
# modifications: VH; VL
# B10: 2C8H52: humanized anti-Ang2 antibody from mouse 2C8; VH SEQ ID NO: 91, VL SEQ ID NO: 92 (antibody, V domains shown)
# VH: B1 VH with T28S, R38K, M48I, R67K, V68A, T69S, M70L, R72V
# VL: B1 VL with T20S, S60D
# modifications: VH; VL
# B11: 2C8H41: humanized anti-Ang2 antibody from mouse 2C8; VH SEQ ID NO: 67, VL SEQ ID NO: 68 (antibody, V domains shown)
# VH: B1 VH with T28S, R38K, M48I, R67K, V68A, T69S
# VL: B1 VL
# modifications: VH; VL
# B12: 2C8H42: humanized anti-Ang2 antibody from mouse 2C8; VH SEQ ID NO: 87, VL SEQ ID NO: 88 (antibody, V domains shown)
# VH: B1 VH with T28S, R38K, M48I, R67K, V68A, T69S
# VL: B1 VL with T20S, S60D
# modifications: VH; VL
# B13: 2C8H23: humanized anti-Ang2 antibody from mouse 2C8; VH SEQ ID NO: 99, VL SEQ ID NO: 100 (antibody, V domains shown)
# VH: B1 VH with T28S, M48I
# VL: B1 VL with T20S, S60D, T85D, Y87F
# modifications: VH; VL
# B14: 2C8H21: humanized anti-Ang2 antibody from mouse 2C8; VH SEQ ID NO: 59, VL SEQ ID NO: 60 (antibody, V domains shown)
# VH: B1 VH with T28S, M48I
# VL: B1 VL
# modifications: VH; VL
# B15: 2C8H13: humanized anti-Ang2 antibody from mouse 2C8; VH SEQ ID NO: 95, VL SEQ ID NO: 96 (antibody, V domains shown)
# VH: B1 VH
# VL: B1 VL with T20S, S60D, T85D, Y87F
# modifications: VH; VL
# B16: 2C8H33: humanized anti-Ang2 antibody from mouse 2C8; VH SEQ ID NO: 103, VL SEQ ID NO: 104 (antibody, V domains shown)
# VH: B1 VH with T28S, M48I, R67K, V68A, T69S
# VL: B1 VL with T20S, S60D, T85D, Y87F
# modifications: VH; VL
# Biological target: T1, hAng2
# Assay: OCTET affinity of humanized anti-Ang2 antibodies against hAng2
# Format: binding
# Conditions: IgG4 class antibodies
# Description: The affinity of humanized anti-Ang2 antibody against hAng2 was measured using OCTET® system (ForteBio). Specifically, buffer and samples were measured in total 200 μl/well using Black 96-well plates (96 well F-type black plates, Greiner). The biosensor used for affinity measurements was hydrated for 10 min before measurement with AR2G tip (ForteBio OCTET®). After the hydration, humanized anti-Ang2 antibody was diluted in 10 mM sodium acetate, pH 6.0 buffer at a concentration of 10 μg/ml, fixed on AR2G biosensor, and blocked with 1M ethanolamine. The recombinant hAng2 was diluted to 50, 25, 12.5, 6.25, 3.125, and 0 nM with 1× kinetic buffer, and subjected to association for 300 sec and dissociation for 900 sec. For affinity measurement (KD), association rate (K-on) and dissociation rate (K-off) were analyzed by binding curve (global) and fitted to 1:1 binding model using OCTET® data analysis v9.0.0.10 program.
# The affinities of humanized 2C8 antibodies to hAng2 were in Table 15.
Kdis,Kon,Molecule
4.35e-06 s⁻¹,415000 M⁻¹ s⁻¹,B1
3.46e-05 s⁻¹,432000 M⁻¹ s⁻¹,B2

# Same assay, conditions: IgG4 class antibodies; statement in words
row,affinities to hAng2 antigen,Molecule
1,subnanomolar high affinities,B1
2,subnanomolar high affinities,B2

# Same assay, conditions: OCTET, antibody fixed on AR2G biosensor, hAng2 50-0 nM, 1:1 binding model
Kdis,Kon,Molecule
1.49e-05 s⁻¹,75700 M⁻¹ s⁻¹,B3
1.33e-05 s⁻¹,95200 M⁻¹ s⁻¹,B4
2.65e-05 s⁻¹,71100 M⁻¹ s⁻¹,B5
6.84e-06 s⁻¹,59600 M⁻¹ s⁻¹,B6
2.21e-05 s⁻¹,83200 M⁻¹ s⁻¹,B7
3.11e-05 s⁻¹,80900 M⁻¹ s⁻¹,B8
9.61e-06 s⁻¹,70200 M⁻¹ s⁻¹,B9
1.99e-05 s⁻¹,81900 M⁻¹ s⁻¹,B10
1.67e-05 s⁻¹,67000 M⁻¹ s⁻¹,B11
3.07e-05 s⁻¹,80600 M⁻¹ s⁻¹,B12
2.28e-05 s⁻¹,79500 M⁻¹ s⁻¹,B13
1.5e-05 s⁻¹,111000 M⁻¹ s⁻¹,B14
2.77e-05 s⁻¹,113000 M⁻¹ s⁻¹,B15
3.99e-06 s⁻¹,89600 M⁻¹ s⁻¹,B16
